Changes are numbered by the printed parent chain. Values joined by “and” are separate entries in the source; they are usually repeats but may differ in a detail not shown here. Identical values can stand only once.

To fix the notation:
B1: anti-TL1A antibody A219 (antibody, V domains shown)
VH: QVQLVQSGAEVKKPGASVKVSCKASGFDIQDTYMHWVKQRPGQGLEWMGRIDPASGHTKYDPKFQVRVTITRDTSTSTVYLELSSLRSEDTAVYYCARSGGLPDVWGQGTTVTVSS
VL: EIVLTQSPGTLSLSPGERATLSCRASSSVSYMYWYQQKPGQAPRPLIYATSNLASGIPDRFSGSGSGTDFTLTISRLEPEDFAVYYCQQWEGNPRTFGGGTKLEIK
B2: A212 (antibody, human IgG1, V domains shown)
VH: B1 VH with K38R, M48I, V68A, R72T, V79A
VL: B1 VL
B3: A147 (antibody, human IgG1, V domains shown)
VH: B1 VH with D52E, T58I, V66G, I70M, L81M, V105W
VL: B1 VL
B4: A213 (antibody, human IgG1, V domains shown)
VH: B1 VH with K38R, R72T, L81M
VL: B1 VL
B5: A220 (antibody, human IgG1, V domains shown)
VH: B1 VH with I70M, V79A
VL: B1 VL with L46W
B6: A219 (antibody, V domains shown)
VH: B1 VH
VL: B1 VL
B7: A217 (antibody, human IgG1, V domains shown)
VH: B1 VH with L81M
VL: B1 VL

One assay concerns the target T1, TL1A produced by cynomolgus monkey PBMCs in whole blood (cynomolgus monkey, UniProt G7PRK8 72-251).
T1 sequence: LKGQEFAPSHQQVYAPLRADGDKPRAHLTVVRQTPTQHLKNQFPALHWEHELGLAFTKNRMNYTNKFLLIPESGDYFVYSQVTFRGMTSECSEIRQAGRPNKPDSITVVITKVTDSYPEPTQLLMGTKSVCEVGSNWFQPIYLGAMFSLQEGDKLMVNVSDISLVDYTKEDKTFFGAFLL
The assay can be described thus: cell-based or functional assay.
As for B1, the “mean IC50 for the inhibition of the IFN-γ response in monkey whole blood” value is 1.54 nM and 289 ng/mL.

The target in the next assay is T2, TL1A in human blood (endogenous) (human, UniProt O95150 72-251, limits assumed).
T2 sequence (looked up): T1 sequence with L39F, V78I
The assay can be described thus: cell-based or functional assay.
As to B2, the % Inhibition (as a rule, how much of the control response was suppressed) at 1 nM Ig of interferon gamma release in human blood amounted to 46.8% and the “% Inhibition at 10 nM Ig of interferon gamma release in human blood” value was 71.2%.
On the same counts, the results for B3 are 51.3% and 72.4%.
On to B4, for which the “% Inhibition at 1 nM Ig of interferon gamma release in human blood” value worked out at 48.6% and the “% Inhibition at 10 nM Ig of interferon gamma release in human blood” value came to 69.8%.
On the same counts, the results for B5 are 36.9% and 63.2%.
On the same counts, the results for B6 are 59.8% and 75.2%.
On the same counts, the results for B7 are 46% and 72.2%.

Source of the values: patent publication US20240336691A1 (PROMETHEUS BIOSCIENCES, published 2024).
